T1: recombinant human CD160 protein, soluble form, with a C-terminal tag of 6 histidine residues (R&D SYSTEMS) (human, UniProt O95971 27-159, limits assumed, biotinylated with EZ-Link sulfo-NHS-LC-biotin for BLI and ELISA; not biotinylated when immobilised on the CM5 chip for SPR)
T1 construct: domain: soluble form; Bought protein; also called hCD160-his; biotinylated CD160
T1 sequence: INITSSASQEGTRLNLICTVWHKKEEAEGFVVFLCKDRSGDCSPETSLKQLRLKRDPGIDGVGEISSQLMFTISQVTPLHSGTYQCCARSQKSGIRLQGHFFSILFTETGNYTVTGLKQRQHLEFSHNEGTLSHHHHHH

T2: human CD160 (CD160 GPI isoform) on cells (human, UniProt O95971 25-159, GPI anchor)
T2 sequence (looked up): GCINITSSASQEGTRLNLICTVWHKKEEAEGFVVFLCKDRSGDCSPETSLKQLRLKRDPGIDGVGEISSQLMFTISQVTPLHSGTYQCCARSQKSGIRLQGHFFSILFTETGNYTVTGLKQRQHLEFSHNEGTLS


What was measured:
[1] = biological target: T1, recombinant human CD160 protein, …; assay: BLI
[2] = biological target: T2, human CD160 (CD160 GPI isoform) on cells; assay: cell-based or functional assay
[3] = biological target: T1, recombinant human CD160 protein, …; assay: BLI (repeats Table 9)
[4] = biological target: T2, human CD160 (CD160 GPI isoform) on cells; assay: flow cytometry on CHO-hCD160 transfectants
Description: The binding capacity of the anti-CD160 H7 antibodies and of the variants (D12 and A09) thereof in the IgG4 and IgG1 format and in the IgG1 E345K format was evaluated during the labelling of surface CD160 expressed in a recombinant line CHO-S-hCD160 (clone 2G10) in comparison with non-transfected CHO-S cells, by measuring the median fluorescence index (MFI) (see FIG. 1). For this, 5×10⁺⁵ 2G10 (CHO-S-CD160) and non-transfected CHO-S cells were labelled with 2 μg of each of these antibodies and also with the appropriate control isotypes. In FIG. 1, all the anti-CD160 tested (regardless of the isotype or the IgG format or the variant) specifically recognize human CD160 expressed recombinantly by the CHO-S cells.
In FIG. 1B, the IgG4 variants bind more efficiently to the CHO-hCD160 transfectants than H7 (which results in a median fluorescence increased by a factor of 2 compared with H7 IgG4 ELB01101 or with H7 IgG4 H310A-H435Q ELB01102), this being even in the presence of the H310A-H435Q mutations.

[5] = biological target: T1, recombinant human CD160 protein, …; assay: SPR (Biacore), design close to Example 2
[6] = biological target: T1, recombinant human CD160 protein, …; assay: BLI, biotinylated CD160 at 10 nM on streptavidin sensor, antibody 3.13-100 nM
[7] = biological target: T2, human CD160 (CD160 GPI isoform) on cells; assay: flow cytometry, percentage of labelled YT2C2 NK cells (2x10^5 cells), antibody 0.39 to 50 nM [panel C]
Description: The binding capacity of the anti-CD160 H7 antibody and of the H7 D12 variant in the IgG4, Fab and Fab-linker Fab format was evaluated during the labelling of surface CD160 expressed naturally on a clone of NK cell line (YT2C2), by measuring the percentage of cell labelled=percentage of binding (see FIG. 1C). For this, 2×10⁺⁵ YT2C2 cells were labelled with increasing concentration of antibodies (from 50 nM to 0.39 nM) and also with the appropriate control isotype. […] In FIG. 1C, IgG4 variants ELB01103 and ELB01104 bind more efficiently to the YT2C2 cells than the H7 IgG4 ELB01101 (which results in a EC₅₀ increased by a factor of 10 compared with H7 IgG4). This is also true for the Fab-linker-Fab format ELB01132. By contrast Fab format ELB01122 bind less efficiently to the YT2C2 cells than the H7 IgG4 ELB01101 (which results in a EC₅₀ decreased by a factor of 2 compared with H7 IgG4). This is certainly due to the monovalency of the Fab format.

[8] = biological target: T1, recombinant human CD160 protein, …; assay: BLI (Octet K2), biotinylated hCD160-His on streptavidin sensor, antibody as analyte
Description: (§1) All the experiments were carried out at 30° C. in the running buffer recommended by Fortebio (PBS with 0.1% (p/v) of bovine serum albumin (BSA) and 0.02% (v/v) Tween-20). This buffer was also used for diluting the various ligands and analytes. The samples deposited in a 96-well microplate (cat #738-0026, Dutscher) were shaken at 1000 revolutions per minute.
Between the measurements, the surfaces of the biosensor were regenerated by exposing them to 3 cycles of 5 sec in 10 mM glycine, pH 2, followed by 5 sec in running buffer. The association and dissociation phases were measured for 300 seconds. All the measurements were corrected for the basic drift by subtracting a reference well with a ligand subjected only to the running buffer.
(§2) The dissociation constants and the association (kₒₙ) and dissociation (kdis) rate constants for each antibody were calculated by applying a 1:1 interaction model, with overall mathematical modelling of curves (fit) (Rmax bound by the sensor) on the ForteBio 9.0 data analysis software.

[9] = biological target: T1, recombinant human CD160 protein, …; assay: BLI, biotinylated CD160 at 10 nM on streptavidin sensor, antibody 3.13-100 nM (row repeated from Table 9)
Description: as §1, §2

[10] = biological target: T1, recombinant human CD160 protein, …; assay: BLI, biotinylated CD160 at 10 nM on streptavidin sensor, antibody 3.13-100 nM; remark: listed apart in the source
Description: as §1, §2

| Binder | Gain in KD/respective IgG [1] | EC50 of NK cell activation (IFN-γ, CD69), improvement against ELB02101 [2] | Kd [3] | koff [3] | kon [3] | median fluorescence, factor against H7 IgG1 [4] | Gain in KD/respective IgG [5] | Kd [5] | koff [5] | kon [5] | Kd [6] | koff [6] | kon [6] | EC50 of IFN-gamma production by NK cells, additional improvement against the IgG1 variants [2] | EC50 of IFN-gamma production by NK cells, improvement against ELB02101 [2] | Kd [10] | koff [10] | kon [10] | further results |
| --- | --- | --- | --- | --- | --- | --- | --- | --- | --- | --- | --- | --- | --- | --- | --- | --- | --- | --- | --- |
| D12 in the IgG1 format (antibody, also called ELB02102) heavy: not shown light: EIVLTQSPATLSLSPGERATLSCRASQSISNHLHWYQQKPGQAPRLLIKYASQSISGIPARFSGSGSGTDFTLTISSLEPEDFAVYFCQQSNSWPLTFGGGTKVEIKRTVAAPSVFIFPPSDEQLKSGTASVVCLLNNFYPREAKVQWKVDNALQSGNSQESVTEQDSKDSTYSLSSTLTLSKADYEKHKVYACEVTHQGLSSPVTKSFNRGEC | 1.9 fold | 2 to 3 logs | 1.55 nM | 0.000654 s⁻¹ | 422000 M⁻¹ s⁻¹ | 3 fold | 2.7 fold | 4.5 nM | 0.00113 s⁻¹ | 251000 M⁻¹ s⁻¹ | 1.55 nM | 0.000654 s⁻¹ | 422000 M⁻¹ s⁻¹ |  |  |  |  |  |  |
| H7 D12 in the Fab linker Fab format (other, two light chains follow from the format; also called ELB01132; D12 Fab linker Fab) heavy: QVQLVQSGAEVKKPGASVKVSCKASGYTFSDFWMQWIRQAPGQGLEWIGAIYPGDDDARVTQKFRGRATLTADKSTSTAYMELSSLRSEDTAVYYCARRGIAAVVGGFDYWGQGTTLTVSSASTKGPSVFPLAPSSKSTSGGTAALGCLVKDYFPEPVTVSWNSGALTSGVHTFPAVLQSSGLYSLSSVVTVPSSSLGTQTYICNVNHKPSNTKVDKRVEPKSCDKGGGGSGGGGSGGGGSQVQLVQSGAEVKKPGASVKVSCKASGYTFSDFWMQWIRQAPGQGLEWIGAIYPGDDDARVTQKFRGRATLTADKSTSTAYMELSSLRSEDTAVYYCARRGIAAVVGGFDYWGQGTTLTVSSASTKGPSVFPLAPSSKSTSGGTAALGCLVKDYFPEPVTVSWNSGALTSGVHTFPAVLQSSGLYSLSSVVTVPSSSLGTQTYICNVNHKPSNTKVDKRVEPKSCDK light: EIVLTQSPATLSLSPGERATLSCRASQSISNHLHWYQQKPGQAPRLLIKYASQSISGIPARFSGSGSGTDFTLTISSLEPEDFAVYFCQQSNSWPLTFGGGTKVEIKRTVAAPSVFIFPPSDEQLKSGTASVVCLLNNFYPREAKVQWKVDNALQSGNSQESVTEQDSKDSTYSLSSTLTLSKADYEKHKVYACEVTHQGLSSPVTKSFNRGEC |  |  |  |  |  |  |  |  |  |  |  |  |  |  |  |  |  |  | EC50 (read off the curve) [7]: ~2 nM |
| D12 in the IgG1 E345K format (antibody, also called ELB02112) heavy: not shown light: EIVLTQSPATLSLSPGERATLSCRASQSISNHLHWYQQKPGQAPRLLIKYASQSISGIPARFSGSGSGTDFTLTISSLEPEDFAVYFCQQSNSWPLTFGGGTKVEIKRTVAAPSVFIFPPSDEQLKSGTASVVCLLNNFYPREAKVQWKVDNALQSGNSQESVTEQDSKDSTYSLSSTLTLSKADYEKHKVYACEVTHQGLSSPVTKSFNRGEC |  |  |  |  |  | 3 fold |  |  |  |  |  |  |  | 2 logs | 4 logs | 1.52 nM | 0.000679 s⁻¹ | 447000 M⁻¹ s⁻¹ |  |
| A09 in the IgG1 format (antibody, also called ELB02104; H7 A09 variant in IgG1 format) heavy: not shown light: EIVLTQSPATLSLSPGERATLSCRASQSISNHLHWYQQKPGQAPRLLIKYASQSISGIPARFSGSGSGTDFTLTISSLEPEDFAVYFCQQSNSWPLTFGGGTKVEIKRTVAAPSVFIFPPSDEQLKSGTASVVCLLNNFYPREAKVQWKVDNALQSGNSQESVTEQDSKDSTYSLSSTLTLSKADYEKHKVYACEVTHQGLSSPVTKSFNRGEC | 2 fold | 2 to 3 logs | 1.47 nM | 0.000651 s⁻¹ | 442000 M⁻¹ s⁻¹ | 3 fold | 3 fold | 3.9 nM | 0.000877 s⁻¹ | 223000 M⁻¹ s⁻¹ | 1.47 nM | 0.000651 s⁻¹ | 442000 M⁻¹ s⁻¹ |  |  |  |  |  |  |

Further lines, with some results ahead:

| Gain in KD/respective IgG [1] | EC50 of NK cell activation (IFN-γ, CD69), improvement against ELB02101 [2] | Kd [3] | koff [3] | kon [3] | median fluorescence, factor against H7 IgG1 [4] | Gain in KD/respective IgG [5] | Kd [5] | koff [5] | kon [5] | Kd [6] | koff [6] | kon [6] | EC50 of IFN-gamma production by NK cells, additional improvement against the IgG1 variants [2] | EC50 of IFN-gamma production by NK cells, improvement against ELB02101 [2] | Kd [10] | koff [10] | kon [10] | Binder | further results |
| --- | --- | --- | --- | --- | --- | --- | --- | --- | --- | --- | --- | --- | --- | --- | --- | --- | --- | --- | --- |
|  |  | 2.94 nM | 0.00109 s⁻¹ | 370000 M⁻¹ s⁻¹ |  |  | 12 nM | 0.00251 s⁻¹ | 209000 M⁻¹ s⁻¹ | 2.94 nM | 0.00109 s⁻¹ | 370000 M⁻¹ s⁻¹ |  |  |  |  |  | anti-CD160 H7 antibody in the human IgG1 format (antibody, also called H7 IgG1; ELB02101) heavy: not shown light: EIVLTQSPATLSLSPGERATLSCRASQSISNHLHWYQQKPGQAPRLLIKYASQSISGIPARFSGSGSGTDFTLTISSLEPEDFAVYFCQQSNSWPLTFGGGTKVEIKRTVAAPSVFIFPPSDEQLKSGTASVVCLLNNFYPREAKVQWKVDNALQSGNSQESVTEQDSKDSTYSLSSTLTLSKADYEKHKVYACEVTHQGLSSPVTKSFNRGEC | Binding response, at 50 nM of anti-CD160 [8]: 1.01 nm (arbitrary units); Kd [8]: 4 nM; koff [8]: 0.00235 s⁻¹; kon [8]: 587000 M⁻¹ s⁻¹; Kd [9]: 2.94 nM; koff [9]: 0.00109 s⁻¹; kon [9]: 370000 M⁻¹ s⁻¹ |
|  |  |  |  |  | 3 fold |  |  |  |  |  |  |  | 2 logs | 4 logs | 1.93 nM | 0.000825 s⁻¹ | 427000 M⁻¹ s⁻¹ | A09 in the IgG1 E345K format (antibody, also called ELB02114) heavy: not shown light: EIVLTQSPATLSLSPGERATLSCRASQSISNHLHWYQQKPGQAPRLLIKYASQSISGIPARFSGSGSGTDFTLTISSLEPEDFAVYFCQQSNSWPLTFGGGTKVEIKRTVAAPSVFIFPPSDEQLKSGTASVVCLLNNFYPREAKVQWKVDNALQSGNSQESVTEQDSKDSTYSLSSTLTLSKADYEKHKVYACEVTHQGLSSPVTKSFNRGEC |  |
